{"source": "patent US20160228563A1", "about": "(USTAV ORGANICKE CHEMIE A BIOCHEMIE AKADEMIE VED CR V V I, published 2016)", "binders": {"B1": {"name": "PrRP analog no. 9 (peptide)", "peptide": "Stearoyl-SRAHQHS[Nle]ETRTPDINPAWYTGRGIRPVGRF-NH2"}, "B2": {"name": "PrRP analog no. 12 (peptide)", "peptide": "Palmitoyl-SRAHQHS[Nle]ETRTPDINPAWYTGRGIRPVGR[1Nal]-NH2"}}, "key": {"[1]": {"biological_target": "T1, human PrRP receptor GPR10 transfected in CHO cells (human, UniProt P49683 1-370)", "T1 construct": "whole, on cells; also called GPR10 human receptor; human GPR10 receptor", "T1 sequence (looked up)": "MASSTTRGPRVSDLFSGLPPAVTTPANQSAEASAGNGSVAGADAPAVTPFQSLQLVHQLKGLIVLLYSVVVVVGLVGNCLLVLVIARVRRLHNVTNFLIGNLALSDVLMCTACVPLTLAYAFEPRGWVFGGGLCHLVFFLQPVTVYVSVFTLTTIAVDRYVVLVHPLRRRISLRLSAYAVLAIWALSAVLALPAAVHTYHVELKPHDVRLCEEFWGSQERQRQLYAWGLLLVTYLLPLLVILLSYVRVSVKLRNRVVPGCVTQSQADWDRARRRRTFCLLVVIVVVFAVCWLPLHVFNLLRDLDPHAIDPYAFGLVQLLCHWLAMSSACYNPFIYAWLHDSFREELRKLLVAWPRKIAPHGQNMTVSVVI", "test": "125I-human PrRP31 displacement, CHO-GPR10 cells", "method": "(§1) Competitive binding experiments were performed according to Motulsky and Neubig (Motulsky, A., et al., “Analyzing radioligand binding data,” Curr Protoc Neurosci, Chapter 7, Unit 7.5, 2002). Binding experiments were conducted with rat pituitary cells, and with Chinese Hamster Ovary (CHO) cells as follows:\nCHO cells transfected with human PrRP receptor GPR10 (Perkin Elmer, USA) were grown on 24-well plates coated with polyethyleneimine. The cells were grown to the optimal density of 40-80 thousand cells per well.\n(§2) Plates were incubated for 60 minutes at room temperature. After incubation, the cells were solubilized in 0.1 mol/l solution of NaOH, and the radioactivity bound to the cells was counted using a γ-counter. The experiments were performed in duplicate, and repeated at least three times."}, "[2]": {"biological_target": "T2, rat PrRP receptor (GPR10) in RC-4B/C rat pituitary cells (rat, UniProt Q64121 1-370)", "T2 construct": "whole, on cells; receptor as expressed by RC-4B/C cells (ATCC); also called rat receptor; rat RC-4B/C cell receptor", "T2 sequence (looked up)": "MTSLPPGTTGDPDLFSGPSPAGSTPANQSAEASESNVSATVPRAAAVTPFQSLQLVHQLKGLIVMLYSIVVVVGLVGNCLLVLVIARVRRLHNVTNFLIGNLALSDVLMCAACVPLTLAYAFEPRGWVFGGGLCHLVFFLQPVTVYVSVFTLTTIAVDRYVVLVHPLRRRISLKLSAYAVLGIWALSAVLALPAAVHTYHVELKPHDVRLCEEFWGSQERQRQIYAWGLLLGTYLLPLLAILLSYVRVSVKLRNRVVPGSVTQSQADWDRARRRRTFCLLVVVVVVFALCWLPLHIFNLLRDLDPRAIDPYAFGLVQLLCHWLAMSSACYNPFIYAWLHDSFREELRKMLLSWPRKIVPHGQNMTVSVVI", "test": "125I-rat PrRP31 displacement, RC-4B/C cells", "method": "as §1\nThe rat pituitary cell line RC-4B/C (ATCC, Manassas, USA) was grown on 24-well plates which had their bottom coated with polyethyleneimine. The cells were grown to the optimal density of 300-450 thousand cells per well.\nas §2"}}, "note": "Square brackets hold non-standard residues; d marks the D form. * marks the point of attachment. 1Nal = N[C@@H](Cc1cccc2ccccc12)C(=O)O; Stearoyl = CCCCCCCCCCCCCCCCCC(=O)*; Palmitoyl = CCCCCCCCCCCCCCCC(=O)*; Nle = CCCC[C@H](N)C(=O)O"}
{"binder": "B1", "values": [{"measurement": "% of PrRP31", "setting": "[1]", "result": 7, "unit": "%"}]}
{"binder": "B2", "values": [{"measurement": "% of PrRP31", "setting": "[2]", "result": 111, "unit": "%"}]}
